According to US20020052481A1:
Where two headings read alike, the source gives them in different places.

What was measured:
[1] = molecular target: recombinant gp120 from the laboratory-adapted strain HIV-1LAI (HIV-1LAI) (UniProt P03377); experiment: modified ELISA, gp120 captured on plate
[2] = molecular target: recombinant gp120 from the primary isolate HIV-1JR-FL (HIV-1JR-FL); experiment: modified ELISA, gp120 captured on plate
[3] = molecular target: HIV-1JR-FL envelope glycoprotein gp120/gp41 on cells (HIV-1JR-FL)
[4] = molecular target: HIV-1LAI envelope glycoprotein gp120/gp41 on cells (HIV-1LAI) (UniProt P03377)
[5] = molecular target: HIV-1JR-FL envelope glycoprotein gp120/gp41 on cells (HIV-1JR-FL); remark: listed apart in the source

Substance	EC50 [1]	EC50 [2]	EC50 [3]	EC50 [4]	EC50 [5]
CD4-IgG2 chimeric heterotetramer (Fc fusion)	1.47 nM	1.27 nM			
^125I-CD4-IgG2 (Fc fusion)	1.05 nM	2.36 nM	12.8 nM	19 nM	10 to 40 nM
